Results reported in patent USRE49280 (University of Texas, dated 2022).

Molecular target: T1, TGF-β2 K25R I92V K94R (UniProt P61812 303-414, K25R; I92V; K94R)
T1 construct: mature; Immobilised on the SPR sensor surface
T1 sequence (looked up): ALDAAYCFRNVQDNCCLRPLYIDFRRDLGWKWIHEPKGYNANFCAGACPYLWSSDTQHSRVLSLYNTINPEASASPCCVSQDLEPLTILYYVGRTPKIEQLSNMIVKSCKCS
Assay: SPR, receptor injected over immobilised TGF-β2 K25R I92V K94R

maximal mass-normalized response relative to that for TβRII: ~0.5 fold of TβRII
B1: TGF-β type III receptor endoglin-like domain (receptor)
chain: GPEPSTRCELSPINASHPVQALMESFTVLSGCASRGTTGLPREVHVLNLRSTDQGPGQRQREVTLHLNPIASVHTHHKPIVFLLNSPQPLVWHLKTERLAAGVPRLFLVSEGSVVQFPSGNFSLTAETEERNFPQENEHLLRWAQKEYGAVTSFTELKIARNIYIKVGEDQVFPPTCNIGKNFLSLNYLAEYLQPKAAEGCVLPSQPHEKEVHIIELITPSSNPYSAFQVDIIVDIRPAQEDPEVVKNLVLILKCKKSVNWVIKSFDVKGNLKVIAPNSIGFGKESERSMTMTKLVRDDIPSTQENLMKWALDNGYRPVTSYTMAPVANRFHLRLENNEEMRDEEVHTIPPELRILLDPD
notes: also called TβRIIIE; BGE
